Test results published in PMC4151172.

Molecular target: HLA-DR1 (HLA-DRB1*01:01), soluble recombinant MHCII (human)
Experiment: fluorescence polarisation

HA(306-318), unlabeled influenza hemagglutinin peptide
IC50: 25 nM
